Experimental data: IntAct's records for PubMed 29892012

B1: Retinoic acid receptor alpha (Homo sapiens), P10276 (parent)
chain: MASNSSSCPTPGGGHLNGYPVPPYAFFFPPMLGGLSPPGALTTLQHQLPVSGYSTPSPATIETQSSSSEEIVPSPPSPPPLPRIYKPCFVCQDKSSGYHYGVSACEGCKGFFRRSIQKNMVYTCHRDKNCIINKVTRNRCQYCRLQKCFEVGMSKESVRNDRNKKKKEVPKPECSESYTLTPEVGELIEKVRKAHQETFPALCQLGKYTTNNSSEQRVSLDIDLWDKFSELSTKCIIKTVEFAKQLPGFTTLTIADQITLLKAACLDILILRICTRYTPEQDTMTFSDGLTLNRTQMHNAGFGPLTDLVFAFANQLLPLEMDDAETGLLSAICLICGDRQDLEQPDRVDMLQEPLLEALKVYVRKRRPSRPHMFPKMLMKITDLRSISAKGAERVITLKMEIPGSMPPLIQEMLENSEGLDTLSGQPGGGGRDGGGLAPPPGSCSPSLSPSSNRSSPATHSP
partner: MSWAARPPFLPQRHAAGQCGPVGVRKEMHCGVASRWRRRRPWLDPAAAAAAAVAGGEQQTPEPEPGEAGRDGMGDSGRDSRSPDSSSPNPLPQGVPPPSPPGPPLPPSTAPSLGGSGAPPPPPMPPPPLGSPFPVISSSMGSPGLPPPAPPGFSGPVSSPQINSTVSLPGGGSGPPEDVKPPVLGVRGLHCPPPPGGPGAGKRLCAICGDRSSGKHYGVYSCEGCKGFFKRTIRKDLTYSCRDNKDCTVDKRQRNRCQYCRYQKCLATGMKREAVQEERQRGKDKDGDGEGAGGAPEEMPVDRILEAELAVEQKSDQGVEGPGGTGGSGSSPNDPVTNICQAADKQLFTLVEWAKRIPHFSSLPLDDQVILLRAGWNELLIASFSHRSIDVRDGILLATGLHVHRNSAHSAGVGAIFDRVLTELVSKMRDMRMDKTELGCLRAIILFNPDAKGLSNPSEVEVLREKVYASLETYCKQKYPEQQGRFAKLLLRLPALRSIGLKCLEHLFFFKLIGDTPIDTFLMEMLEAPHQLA
B2: Methanethiol oxidase (Homo sapiens), Q13228 (parent)
chain: MATKCGNCGPGYSTPLEAMKGPREEIVYLPCIYRNTGTEAPDYLATVDVDPKSPQYCQVIHRLPMPNLKDELHHSGWNTCSSCFGDSTKSRTKLVLPSLISSRIYVVDVGSEPRAPKLHKVIEPKDIHAKCELAFLHTSHCLASGEVMISSLGDVKGNGKGGFVLLDGETFEVKGTWERPGGAAPLGYDFWYQPRHNVMISTEWAAPNVLRDGFNPADVEAGLYGSHLYVWDWQRHEIVQTLSLKDGLIPLEIRFLHNPDAAQGFVGCALSSTIQRFYKNEGGTWSVEKVIQVPPKKVKGWLLPEMPGLITDILLSLDDRFLYFSNWLHGDLRQYDISDPQRPRLTGQLFLGGSIVKGGPVQVLEDEELKSQPEPLVVKGKRVAGGPQMIQLSLDGKRLYITTSLYSAWDKQFYPDLIREGSVMLQVDVDTVKGGLKLNPNFLVDFGKEPLGPALAHELRYPGGDCSSDIWI
partner: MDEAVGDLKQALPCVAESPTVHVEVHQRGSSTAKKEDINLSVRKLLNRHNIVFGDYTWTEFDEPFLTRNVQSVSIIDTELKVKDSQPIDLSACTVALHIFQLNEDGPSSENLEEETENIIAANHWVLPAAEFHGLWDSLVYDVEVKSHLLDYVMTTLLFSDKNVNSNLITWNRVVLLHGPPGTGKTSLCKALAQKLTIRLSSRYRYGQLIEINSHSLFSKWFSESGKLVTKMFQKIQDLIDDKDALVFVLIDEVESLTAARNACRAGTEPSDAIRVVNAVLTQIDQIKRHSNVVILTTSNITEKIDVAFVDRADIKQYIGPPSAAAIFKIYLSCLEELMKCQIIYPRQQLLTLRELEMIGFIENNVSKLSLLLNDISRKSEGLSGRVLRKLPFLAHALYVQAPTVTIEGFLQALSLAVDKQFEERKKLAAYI
B3: Forkhead box protein P3 (Homo sapiens), Q9BZS1 (parent)
chain: MPNPRPGKPSAPSLALGPSPGASPSWRAAPKASDLLGARGPGGTFQGRDLRGGAHASSSSLNPMPPSQLQLPTLPLVMVAPSGARLGPLPHLQALLQDRPHFMHQLSTVDAHARTPVLQVHPLESPAMISLTPPTTATGVFSLKARPGLPPGINVASLEWVSREPALLCTFPNPSAPRKDSTLSAVPQSSYPLLANGVCKWPGCEKVFEEPEDFLKHCQADHLLDEKGRAQCLLQREMVQSLEQQLVLEKEKLSAMQAHLAGKMALTKASSVASSDKGSCCIVAAGSQGPVVPAWSGPREAPDSLFAVRRHLWGSHGNSTFPEFLHNMDYFKFHNMRPPFTYATLIRWAILEAPEKQRTLNEIYHWFTRMFAFFRNHPATWKNAIRHNLSLHKCFVRVESEKGAVWTVDELEFRKKRSQRPSRCSNPTPGP
B4: MOB kinase activator 3C (Homo sapiens), Q70IA8 (parent)
chain: MALCLKQVFAKDKTFRPRKRFEPGTQRFELYKKAQASLKSGLDLRSVVRLPPGENIDDWIAVHVVDFFNRINLIYGTMAERCSETSCPVMAGGPRYEYRWQDERQYRRPAKLSAPRYMALLMDWIEGLINDEEVFPTRVGVPFPKNFQQVCTKILTRLFRVFVHVYIHHFDSILSMGAEAHVNTCYKHFYYFIREFSLVDQRELEPLREMTERICH
partner: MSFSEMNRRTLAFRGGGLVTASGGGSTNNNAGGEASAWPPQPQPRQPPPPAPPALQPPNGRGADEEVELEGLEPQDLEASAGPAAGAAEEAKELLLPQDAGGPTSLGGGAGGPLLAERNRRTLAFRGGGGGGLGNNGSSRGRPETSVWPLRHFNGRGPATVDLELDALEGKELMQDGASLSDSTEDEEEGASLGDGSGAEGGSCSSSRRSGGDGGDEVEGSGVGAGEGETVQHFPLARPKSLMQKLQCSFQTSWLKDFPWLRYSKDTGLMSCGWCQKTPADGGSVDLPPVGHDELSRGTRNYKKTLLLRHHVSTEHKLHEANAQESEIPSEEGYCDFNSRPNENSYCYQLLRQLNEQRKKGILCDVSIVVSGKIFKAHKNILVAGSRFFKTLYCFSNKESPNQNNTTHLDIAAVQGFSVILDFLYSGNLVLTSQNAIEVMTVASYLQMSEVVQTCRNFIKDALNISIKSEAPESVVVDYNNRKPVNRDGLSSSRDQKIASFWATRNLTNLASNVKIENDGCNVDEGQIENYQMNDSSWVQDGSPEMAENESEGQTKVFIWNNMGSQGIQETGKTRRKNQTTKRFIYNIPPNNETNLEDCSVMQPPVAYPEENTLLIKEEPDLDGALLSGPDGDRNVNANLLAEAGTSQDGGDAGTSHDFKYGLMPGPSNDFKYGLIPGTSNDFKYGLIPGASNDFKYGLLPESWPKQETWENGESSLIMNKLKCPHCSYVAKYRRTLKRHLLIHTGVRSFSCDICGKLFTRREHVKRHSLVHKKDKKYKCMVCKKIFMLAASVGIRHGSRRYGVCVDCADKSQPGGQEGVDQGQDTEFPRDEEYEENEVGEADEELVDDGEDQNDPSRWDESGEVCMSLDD
B5: Peripheral plasma membrane protein CASK (Homo sapiens), O14936 (parent)
chain: MADDDVLFEDVYELCEVIGKGPFSVVRRCINRETGQQFAVKIVDVAKFTSSPGLSTEDLKREASICHMLKHPHIVELLETYSSDGMLYMVFEFMDGADLCFEIVKRADAGFVYSEAVASHYMRQILEALRYCHDNNIIHRDVKPHCVLLASKENSAPVKLGGFGVAIQLGESGLVAGGRVGTPHFMAPEVVKREPYGKPVDVWGCGVILFILLSGCLPFYGTKERLFEGIIKGKYKMNPRQWSHISESAKDLVRRMLMLDPAERITVYEALNHPWLKERDRYAYKIHLPETVEQLRKFNARRKLKGAVLAAVSSHKFNSFYGDPPEELPDFSEDPTSSGLLAAERAVSQVLDSLEEIHALTDCSEKDLDFLHSVFQDQHLHTLLDLYDKINTKSSPQIRNPPSDAVQRAKEVLEEISCYPENNDAKELKRILTQPHFMALLQTHDVVAHEVYSDEALRVTPPPTSPYLNGDSPESANGDMDMENVTRVRLVQFQKNTDEPMGITLKMNELNHCIVARIMHGGMIHRQGTLHVGDEIREINGISVANQTVEQLQKMLREMRGSITFKIVPSYRTQSSSCERDSPSTSRQSPANGHSSTNNSVSDLPSTTQPKGRQIYVRAQFEYDPAKDDLIPCKEAGIRFRVGDIIQIISKDDHNWWQGKLENSKNGTAGLIPSPELQEWRVACIAMEKTKQEQQASCTWFGKKKKQYKDKYLAKHNAVFDQLDLVTYEEVVKLPAFKRKTLVLLGAHGVGRRHIKNTLITKHPDRFAYPIPHTTRPPKKDEENGKNYYFVSHDQMMQDISNNEYLEYGSHEDAMYGTKLETIRKIHEQGLIAILDVEPQALKVLRTAEFAPFVVFIAAPTITPGLNEDESLQRLQKESDILQRTYAHYFDLTIINNEIDETIRHLEEAVELVCTAPQWVPVSWVY
partner: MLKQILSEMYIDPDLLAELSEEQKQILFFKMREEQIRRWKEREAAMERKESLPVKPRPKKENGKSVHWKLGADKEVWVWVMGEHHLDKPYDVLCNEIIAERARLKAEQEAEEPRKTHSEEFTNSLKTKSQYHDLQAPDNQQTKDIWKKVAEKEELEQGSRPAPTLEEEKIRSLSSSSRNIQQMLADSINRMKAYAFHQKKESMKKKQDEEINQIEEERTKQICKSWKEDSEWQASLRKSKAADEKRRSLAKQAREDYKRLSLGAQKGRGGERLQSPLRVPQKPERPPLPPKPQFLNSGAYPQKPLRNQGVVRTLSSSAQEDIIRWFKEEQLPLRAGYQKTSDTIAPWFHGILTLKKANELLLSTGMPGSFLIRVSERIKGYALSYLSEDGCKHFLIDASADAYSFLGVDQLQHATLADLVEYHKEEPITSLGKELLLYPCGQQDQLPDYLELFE

Variants of: B1
Conditions: with rxrb_human RXRB

| effect of a mutation on the interaction | Variant |
| --- | --- |
| with no effect | R83H |

Variants of: B2
Conditions: with pch2_human TRIP13, Q15645

| effect of a mutation on the interaction | Variant |
| --- | --- |
| with no effect | R398C |

Variants of: B3
Conditions: with pr20e_human PRR20E

| effect of a mutation on the interaction | Variant |
| --- | --- |
| with no effect | T108M |

Variants of: B3
Conditions: with rbpms_human RBPMS

| effect of a mutation on the interaction | Variant |
| --- | --- |
| with no effect | T108M |

Variants of: B4
Conditions: with zbt10_human ZBTB10, Q96DT7

| effect of a mutation on the interaction | Variant |
| --- | --- |
| disrupting interaction strength | I173F |

Variants of: B5
Conditions: with sh24a_human SH2D4A

| effect of a mutation on the interaction | Variant |
| --- | --- |
| with no effect | G197R |
